# From the DeepSol protein solubility set
# Test: soluble on expression in E. coli; label from the status in PepcDB or PDB records
row,Sequence,soluble on expression in E. coli
1,MTADKLVFFVNGRKVVEKNADPETTLLAYLRRKLGLSGTKLGCGEGGCGACTVMLSKYDRLQNKIVHFSANACLAPICSLHHVAVTTVEGIGSTKTRLHPVQERIAKSHGSQCGFCTPGIVMSMYTLLRNQPEPTMEEIENAFQGNLCRCTGYRPILQGFRTFARDGGCCGGDGNNPNCCMNQKKDHSVSLSPSLFKPEEFTPLDPTQEPIFPPELLRLKDTPRKQLRFEGERVTWIQASTLKELLDLKAQHPDAKLVVGNTEIGIEMKFKNMLFPMIVCPAWIPELNSVEHGPDGISFGAACPLSIVEKTLVDAVAKLPAQKTEVFRGVLEQLRWFAGKQVKSVASVGGNIITASPISDLNPVFMASGAKLTLVSRGTRRTVQMDHTFFPGYRKTLLSPEEILLSIEIPYSREGEYFSAFKQASRREDDIAKVTSGMRVLFKPGTTEVQELALCYGGMANRTISALKTTQRQLSKLWKEELLQDVCAGLAEELHLPPDAPGGMVDFRCTLTLSFFFKFYLTVLQKLGQENLEDKCGKLDPTFASATLLFQKDPPADVQLFQEVPKGQSEEDMVGRPLPHLAADMQASGEAVYCDDIPRYENELSLRLVTSTRAHAKIKSIDTSEAKKVPGFVCFISADDVPGSNITGICNDETVFAKDKVTCVGHIIGAVVADTPEHTQRAAQGVKITYEELPAIITIEDAIKNNSFYGPELKIEKGDLKKGFSEADNVVSGEIYIGGQEHFYLETHCTIAVPKGEAGEMELFVSTQNTMKTQSFVAKMLGVPANRIVVRVKRMGGGFGGKVTRSTVVSTAVALAAYKTGRPVRCMLDRDEDMLITGGRHPFLARYKVGFMKTGTVVALEVDHFSNVGNTQDLSQSIMERALFHMDNCYKIPNIRGTGRLCKTNLPSNTAFRGFGGPQGMLIAECWMSEVAVTCGMPAEEVRRKNLYKEGDLTHFNQKLEGFTLPRCWEECLASSQYHARKSEVDKFNKENCWKKRGLCIIPTKFGISFTVPFLNQAGALLHVYTDGSVLLTHGGTEMGQGLHTKMVQVASRALKIPTSKIYISETSTNTVPNTSPTAASVSADLNGQAVYAACQTILKRLEPYKKKNPSGSWEDWVTAAYMDTVSLSATGFYRTPNLGYSFETNSGNPFHYFSYGVACSEVEIDCLTGDHKNLRTDIVMDVGSSLNPAIDIGQVEGAFVQGLGLFTLEELHYSPEGSLHTRGPSTYKIPAFGSIPIEFRVSLLRDCPNKKAIYASKAVGEPPLFLAASIFFAIKDAIRAARAQHTGNNVKELFRLDSPATPEKIRNACVDKFTTLCVTGVPENCKPWSVRV,soluble
2,MGSDKIHHHHHHMEKDIFVELNFLIMIIDDALPKFDLPVDFVTDDSITGDILNQYGRFPCHIKAGVFVLCTRGTVRATINLSEYTITHNDFVTVLPGSFIQIHEVSSDTRVCFAGFSSEFISRVSYVETYLDFLPMILDNPIMALQEEVAQLYRNAFSLLIRAYSLPNTLDNKEILMSIFTIFFQGVGELYKRCKPTTNEPIKREHELYRQFIQLLMTHYTQEHEVSFYAKKCGVTPAHFSGAIRKASGHSPLAIITGIIIMNAKAQLKSTRLPVKEIAFSLGFNNLSFFNKYFRKHVKMTPQEYREC,not soluble
3,MGSDKIHHHHHHMKQQYTATVVMATYNGEKNILEQLDSLKNQSKKIDEVLIWDDCSTDSTVKIIENFISENKLGETWHLQINTENLGWRKNFFNLLNAATKEIVFTCDQDDIWDASKIEVMCEAFANTDVKVLVSDYTELVEPGGLAEELKKIDSVKLPNQKAEQIIFNENNLFLRRPGCVYAIRKSFIANVNLYASEMENPVHDMAMWGSSLLSDGLYIVREELIRWRKHGQSSFKKEIDLAKKQNHFEERLNTLRRRLQRTEAAKNYLNNQPHVEEFEYKDKVLSNLIKELNMRVSLLERKKIIPILCAFFKYHHKFYFSTDIYHIMKYKIRK,not soluble
4,MTRHGKNCTAGAVYTYHEKRKDTAASGYGTQSVRLGKDAIKDFDCCSLSLQPCRDPVLTEDGYLYEKEAILQYILHQKTEIAKKMKAYEKQKQALKSEGQLESKSEERERAEKFKQRENNIVSKPINPFTSGKSKDEGNQNGSTSSSSTDTSSGESSSSSALPSFWIPSLTPEAKPTLLKKPSKTVSCPMSGRPLKMSDLITVRFTPLDPSLDRVALLTRQDRYVCAVTKDTLGNSVPCAVLRPSGVVVTMECVEKLIKKDMVDPITGDKLKEKDIIPIQRGGTGFAGSGVDLKAKEARPVMQA,not soluble
5,MLDPFSEKAKELLKEFGSMNEFLQAIPSLVDIEEVMNRLKFAKESEISEDILNIEDIRDLASFYAQIGALAYSPYGLELELVKKANLRIYTERIRRRRKIRSDEIGIEVKIAVEFPENDIKTLEKVYGGLPEYIVSLREFLDLVPDEKLSSYYVYDGNVYLRKDDLLKVWSKAFERNVEKAVNIIYEIRDELPEFYRRLAGEIRSFAEKEFSDKFREVQAGELKHHLFPPCVKNALRGVPQGMRNYAITVLLTSFLSYARICPNPPRRNVKIRDCIKDMRVITEEILPIIIEAGNRCSPPLFEDQPNEIKNIWYHLGFGYTANPTLEDSGNSTWYFPPNCDKIKANAPQLCTPDKHCRYIRNPLTYYLRRLYLEEKRRAKHADEGSDKGGKERILQLEHHHHHH,not soluble
6,GPLGSVGSWECPVCCVSNKAEDSRCVSCTSEKPGLVSASSSNSVPVSLPSGGCLGLDKFKKPEGSWDCEVCLVQNKADSTKCIACESAKPGT,soluble
7,MSDRGRTLMVQGTTSDAGKSTLVTALCRWLARRGVAVVPFKPQNMALNSAVTADGGEIGRAQAVQAQACRLAPHTDMNPVLLKPNTDIGAQVIIHGRAVTSMDAAAYHDYKRVAMEAVLASHGRLAAAYRVVMVEGAGSPAEINLRANDIANMGFAEAVDCPVILVADIDRGGVFAHLVGTLELLSDSERERVKGFVINRFRGDIALLQPGLDWLEARTGKPVLGVLPYVSDLHLEAEDAIDTRQAAKVGPRLKVVVPVLPRISNHTDFDPLRLHPQVELSFVGPGQALPSADLIVLPGSKSVRADLAALRERGWDEAILRHLRYGGRLLGICGGLQMLGERLHDPLGLEGAAGSSAGLGLLALETTLEADKQLRNVQGRLSLEDAPLSGYEIHAGVTRGEALARPAVVLDDGRADGARSVDGNVMGTYLHGLFESTAACSALLRWAGLREVQAVDYQALRERDIERLADLVERHLDTGRLLALCGEPH,not soluble
8,MRGSHHHHHHMDYASVAMAAAPTTTTTTNVSLRRQRHRKEKLLVLMGATGTGKSRLSIDLAAHFPLEVINSDKMQVYKGLDITTNKISVPDRGGVPHHLLGEVDPARGELTPADFRSLAGKAVSEITGRRKLPVLVGGSNSFIHALLVDRFDSSGPGVFEEGSHSVVSSELRYDCCFLWVDVSVKVLTDYLAKRVDDMLELGMFDELAEFYSPEDEDHDEDSATRTGLRKAIGVPEFDRYFEKFRPGDVEGEDPGRDRVRRGAFEEAVRAIKENTCHLAKRQIGKILRLKGAGWDLRRLDATESFRAAMTSDSGEKCTEIWEKQVLEPSVKIVSRFLDE,soluble
9,MLVTTTERISGQEYEIIGEVFGLTTRSKNMFKDLGAGLKSVVGGEIKGYTDMQREARDQAIERLKAEASKLGADAVVMMRFDSGTIGTDMQSVVAYGTAVKYILEHHHHHH,not soluble
10,MGLLKDLSSARDKIERIYGLNKEKLLLLAKVKEGFETSVFDFPFKNIQPDSPYFVCLDPPCKKESAYNKVIGDKNRTVYHEINKTEFENMIKLRTKRLKLLIGEVDAEVSTGDKIEFPVLANGKRRGFIYNVGGLVTDIAWLNIEENTDIGKDIQYLAVAVSQYMDEPLNEHLEMFDKEKHSSCIQIFKMNTSTLHCVKVQTIVHSFGEVWDLKWHEGCHAPHLVGCLSFVSQEGTINFLEIIDNATDVHVFKMCEKPSLTLSLADSLITTFDFLSPTTVVCGFKNGFVAEFDLTDPEVPSFYDQVHDSYILSVSTAYSDFEDTVVSTVAVDGYFYIFNPKDIATTKTTVSRFRGSNLVPVVYCPQIYSYIYSDGASSLRAVPSRAAFAVHPLVSRETTITAIGVSRLHPMVLAGSADGSLIITNAARRLLHGIKNSSATQKSLRLWKWDYSIKDDKYRIDSSYEVYPLTVNDVSKAKIDAHGINITCTKWNETSAGGKCYAFSNSAGLLTLEYLSLEHHHHHH,soluble
11,MYTPLYRPRYPEGLDPGIQHGVLRLLNPDPRVGEAEHRLENLLEPPYGGPPPPYYQSRPLRPYCYVSAEAGLNNLDPAVPRFVEVLSQPLVYLSPQETLV,soluble
